Data as given in the supplement of paper PMC10567573.

B1: PLAGL1 (parent)
chain: DPNKMAFGCEECGKKYNTMLGYKR
B2: CLCN6 (parent)
chain: FQSISLRKIQFNFPYFRSDRDKRD

Variants of: B1
Experiment: protein stability index of a GFP-peptide fusion (GPS, HEK-293T) (PSI 1-6); higher = more stable
Conditions: c terminus: a fixed tail appended
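Further: lentivirally expressed fusions sorted by FACS into six bins by GFP to DsRed ratio, PSI derived from sequencing read proportions per bin multiplied by bin number.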

Protein stability index: each site, then its substitutions
M5: V 1.93 | D 3.54 | L 2.67 | S 2.81
K23: G 2.21 | M 1.58 | F 2.03 | P 2.31 | E 2.15 | Y 2.22 | A 1.98 | I 2.95 | V 1.79
T18: H 2.81 | C 2.35 | K 3.01 | M 2.18 | A 3.2 | V 1.42 | R 2.6
A6: V 2.04 | L 3.02 | I 2.46 | K 2.97 | R 2.19 | F 2.32 | N 2.58 | H 2.53 | C 2.35
E10: L 1.92 | A 1.74 | Y 1.92 | G 2.3 | Q 2.54 | I 2.51
R24: T 2.93 | K 4.02 | V 2.52 | S 3.3 | I 2.05 | A 3.02
G13: D 2.81 | I 2.49 | Q 2.35 | T 2.33 | E 2.63 | F 1.93 | A 2.33
F7: S 3.43 | C 2.22 | A 3.27 | W 1.74 | M 2.58 | D 2.59 | G 3.17
G21: V 1.81 | F 1.85 | Y 2.06 | T 2.08 | R 2.94
D1: V 2.7 | K 2.09 | R 1.8
G8: Y 2.21 | F 1.68 | D 2.73 | H 2.5 | C 2.19 | N 2.74 | K 2.14
N3: V 2.69 | S 2.87 | C 2.23 | T 2.79
K14: P 2.88 | N 3.06 | D 2.98 | H 1.99 | V 2.37
P2: V 2 | C 2.28
C9: E 3.52 | R 4.08 | N 4.01 | W 3.01 | Q 4.16
K15: P 2.81 | V 2.27 | A 2.73 | W 2.27 | E 3.03 | Q 3.14 | F 1.81 | R 1.52 | H 1.98 | M 1.73 | L 2.19
K4: E 3.3 | G 2.72 | I 1.95
N17: L 1.91 | S 1.66 | T 1.99 | K 3.06 | M 1.75 | R 2.02 | C 2.2
Y22: R 3.33 | F 1.92 | P 2.02 | S 3.47 | G 3.07 | D 3.5 | M 3.01 | V 2.94 | A 2.53
Y16: E 3.2 | A 2.82 | H 2.73 | K 3.16 | V 2.73
M19: E 2.32 | V 2.14 | C 2.57 | W 2.11 | P 2.27
C12: V 4.43 | R 4.61 | M 3.93 | Y 3.92 | L 3.3
L20: I 2.54 | Y 2.1 | R 3.46 | C 2.59 | M 2.72 | P 3.11
E11: G 1.77 | P 2.83 | N 2.52 | R 1.53 | H 2.28 | Q 1.99

Variants of: B2
Experiment: as above
Conditions: c terminus: a fixed tail appended

Protein stability index: each site, then its substitutions
I9: H 1.83 | G 1.44 | D 1.72 | R 2.02 | S 2 | P 1.65 | W 1.78 | T 2.78 | E 1.98 | L 1.62
N12: T 2.37 | I 2.06 | M 1.54 | K 2.04 | S 1.65 | D 1.53 | A 1.09
D21: E 1.1 | P 2.61 | S 3.06 | A 3.22
Y15: N 2.78 | M 1.53 | F 1.48 | Q 2.56 | V 2.22 | D 2.31 | T 2.75 | K 2 | W 1.44
D19: M 2.01 | K 1.46 | R 1.9 | T 2.21 | F 1.68 | L 1.47 | S 1.33 | P 2.16 | Q 1.85
D24: F 1.93 | K 1.37 | A 1.68 | Q 1.37 | V 1.31 | I 2.59 | R 1.94 | H 2.1
R20: T 1.25 | L 1.22 | H 1.72 | A 2.17 | E 2.73 | S 2.2 | K 1.43 | Q 3.07
R17: F 1.52 | V 2.15 | K 1.76 | G 1.71 | Q 2.02 | H 2.35 | P 2.28 | T 1.71 | N 2.21 | M 1.93
Q10: A 1.56 | L 1.67 | N 1.95 | D 2.04 | P 1.74 | F 1.52
F1: N 3.76 | A 2.6 | S 3.4 | R 2.07 | G 2.16 | I 2.16 | H 2.83 | C 2.4 | Q 3.52 | K 3.31
F13: V 1.43 | K 1.8 | Q 2.28 | Y 2.49 | P 1.75 | M 2.29 | D 1.98
F11: P 1.28 | S 1.56 | L 2.54 | Y 1.61 | M 1.65 | K 2.79 | E 2.02
S3: N 1.82 | T 1.79 | Q 1.66 | H 1.46 | F 2.58 | W 2.4 | R 1.38 | P 2.29
K8: E 2.63 | T 1.44 | N 2.18 | C 1.75 | R 1.74 | I 2.78 | W 2.43 | S 1.31 | Y 2.09 | L 2.64
K22: A 1.29 | T 2.17 | S 2.72 | Y 2.27 | M 1.82 | L 1.71
P14: F 1.69 | H 1.67 | N 1.81 | Q 2.5
S18: H 1.93 | T 2.31 | R 2.16 | N 2.62 | Y 2.35 | D 1.71 | M 1.38 | Q 1.52
I4: N 1.98 | G 2.02 | D 2.05 | A 2.71 | E 1.91 | Y 1.42 | T 2.21 | V 1.98
S5: M 1.46 | Q 1.66 | D 1.96 | N 1.82 | E 2.21 | T 1.42 | R 1.77 | P 1.82 | Y 1.98 | G 1.02 | I 1.4
R23: M 1.38 | V 1.88 | Y 1.28 | A 1.73 | I 1.69 | Q 2.39 | L 1.35 | E 1.86 | C 1.67 | H 1.99 | S 1.29 | N 1.81 | P 3.46 | T 2.25
R7: C 1.81 | I 1.77 | A 2.38 | T 1.78 | L 1.37
Q2: D 2.46 | R 1.91 | N 1.62 | T 2.73 | L 2.31 | I 1.06 | K 2.5 | A 2.17 | V 5.36 | F 1.53 | Y 1.33
L6: P 2.78 | H 2.03 | A 2.68 | S 1.66
F16: H 2.3 | T 1.9 | W 2.08 | E 2.22 | L 1.44 | A 1.68 | Q 2.39
